Molecular target: the molecule itself
Test: SEC; Superdex 75 HR 30/10; Utr-SR1 in 20 mM Tris pH 8.0, 50 mM NaCl; Dys-SR1 in PBS; no DTT added

B1: Dystrophin N-terminal (repeat 1) spectrin repeat (domain or fragment, human, UniProt P11532 338-456, looked up)
chain: EVNLDRYQTALEEVLSWLLSAEDTLQAQGEISNDVEVVKDQFHTHEGYMMDLTAHQGRVGNILQLGSKLIGTGKLSEDEETEVQEQMNLLNSRWECLRVASMEKQSNLHRVLMDLQNQK
notes: dystrophin, human, residues 338-456 (first spectrin repeat); Without a reducing agent part of the protein is a dimer linked by a disulphide bond between C433 of each molecule; The model in PDB 3UUN holds residues 338-453 (monomer A) and 339-452 (monomer B); Tag and cleavage are told only as 'prepared in an equivalent manner' to Utr-SR1; also called Dys-SR1; source: E. coli BL21(DE3), purified in …
Q: Does B1 bind?
A: binds
